{
  "source": "paper doi:10.1101/2020.12.04.411645",
  "about": "(bioRxiv, 2020)",
  "binders": {"B1": {"name": "MBP-tagged full-length CYRI-B (natural protein)", "chain": "MGNLLKVLTCTDLEQGPNFFLDFENAQPTESEKEIYNQVNVVLKDAEGILEDLQSYRGAGHEIREAIQHPADEKLQEKAWGAVVPLVGKLKKFYEFSQRLEAALRGLLGALTSTPYSPTQHLEREQALAKQFAEILHFTLRFDELKMTNPAIQNDFSYYRRTLSRMRINNVPAEGENEVNNELANRMSLFYAEATPMLKTLSDATTKFVSENKNLPIENTTDCLSTMASVCRVMLETPEYRSRFTNEETVSFCLRVMVGVIILYDHVHPVGAFAKTSKIDMKGCIKVLKDQPPNSVEGLLNALRYTTKHLNDETTSKQIRSMLQ"}},
  "molecular_target": "untagged full-length RAC1 Q61L (UniProt P63000 1-192, Q61L)",
  "assay": "SPR",
  "data": [
    {"binder": "B1", "values": [
      {"measurement": "Kd", "result": 18.3, "unit": "µM"}
    ]}
  ]
}
